Source: patent US20200017592A1 (Regeneron, published 2020)

T1: full-length human IL-36R on cells (human, UniProt Q9HB29 20-575)
T1 sequence (looked up): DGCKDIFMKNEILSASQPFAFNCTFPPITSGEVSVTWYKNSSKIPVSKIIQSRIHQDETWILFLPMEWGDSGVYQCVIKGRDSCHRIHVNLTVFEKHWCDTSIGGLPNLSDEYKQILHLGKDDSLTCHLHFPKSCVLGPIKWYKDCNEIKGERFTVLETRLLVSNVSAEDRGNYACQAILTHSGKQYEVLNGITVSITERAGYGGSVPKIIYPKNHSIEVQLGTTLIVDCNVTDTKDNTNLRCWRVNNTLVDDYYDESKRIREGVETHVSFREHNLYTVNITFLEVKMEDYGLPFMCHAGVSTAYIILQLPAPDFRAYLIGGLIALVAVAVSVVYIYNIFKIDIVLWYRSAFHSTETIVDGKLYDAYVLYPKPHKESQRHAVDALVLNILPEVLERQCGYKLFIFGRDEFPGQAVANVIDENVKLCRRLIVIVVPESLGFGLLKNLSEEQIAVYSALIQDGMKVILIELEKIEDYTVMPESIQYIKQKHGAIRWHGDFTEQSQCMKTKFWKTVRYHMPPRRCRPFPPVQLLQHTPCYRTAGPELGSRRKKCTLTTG

T2: Macaca fascicularis IL-36R on cells (Macaca fascicularis, UniProt A0A2K5WSK9 20-558)
T2 sequence: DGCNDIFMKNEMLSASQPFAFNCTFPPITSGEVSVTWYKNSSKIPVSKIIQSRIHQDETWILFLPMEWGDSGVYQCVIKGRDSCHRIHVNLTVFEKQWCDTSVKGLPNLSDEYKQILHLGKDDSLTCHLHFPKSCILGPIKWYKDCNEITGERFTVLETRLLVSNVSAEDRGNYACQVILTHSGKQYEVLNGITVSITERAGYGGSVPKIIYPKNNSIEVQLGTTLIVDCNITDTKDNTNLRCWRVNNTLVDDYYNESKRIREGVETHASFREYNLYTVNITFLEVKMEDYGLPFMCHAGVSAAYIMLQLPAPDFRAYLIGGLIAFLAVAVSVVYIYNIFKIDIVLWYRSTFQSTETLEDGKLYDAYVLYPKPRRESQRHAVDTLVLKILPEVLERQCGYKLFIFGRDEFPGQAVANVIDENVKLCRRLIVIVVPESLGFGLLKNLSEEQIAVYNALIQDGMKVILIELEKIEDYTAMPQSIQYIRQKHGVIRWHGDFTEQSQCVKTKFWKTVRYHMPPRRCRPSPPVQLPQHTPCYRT


Assays:
[1] = molecular target: T3, recombinant human IL-36R extracellular domain expressed with a C-terminal myc-myc-hexahistidine tag (human, UniProt Q9HB29 20-337); assay: SPR (Biacore 4000), mAb captured on anti-human Fc, 37°C
T3 construct: also called hIL-36R-MMH; hIL-36R.mmH
Protocol: (§1) Equilibrium dissociation constants (KD values) for IL-36R binding to purified anti-IL-36R antibodies were determined using a real-time surface plasmon resonance biosensor using a Biacore 4000 instrument. The Biacore sensor surface was first derivatized by amine coupling with a monoclonal mouse anti-human Fc antibody (GE, # BR-1008-39) to capture anti-IL-36R monoclonal antibodies. All binding studies were performed in 0.01 M Hepes pH 7.4, 0.15 M NaCl, 3 mM EDTA, and 0.05% v/v Surfactant Tween-20 (HBS-ET running buffer) at 25° C. and 37° C. Different concentrations of IL-36R reagents, human IL-36R extracellular domain expressed with a C-terminal myc-myc-hexahistidine tag (hIL-36R-MMH), Macaca fascicularis IL-36R extracellular domain expressed with a C-terminal myc-myc-hexahistidine tag (mfIL-36R-MMH: mROR1 signal sequence (M1-A29). Macaca fascicularis IL36R_ecto domain (D20-A336).mycmycHis6), human IL-36R extracellular domain expressed with a C-terminal mouse IgG2a Fc tag (hIL-36R-mFc: mROR1 signal sequence (M1-A29)-human IL36R (D20-Y337)-mouse IgG2aFc (E98-K330)) or an in-line fusion protein of human IL-36R extracellular domain and IL1RAcP extracellular domain expressed with mouse IgG2a Fc tag (hIL-36R-Trap-mFc: mROR1 signal sequence (M1-A29)-human IL36R ecto domain (D20-Y337)-human IL1RacP ecto domain(S21-E359)-mouse IgG2aFc) in HBS-ET running buffer (ranging from 100 nM to 3.7 nM, 3-fold dilutions) were injected over the anti-IL-36R antibody captured surface for 4 minutes at a flow rate of 30 μL/minute and their dissociation in HBS-ET running buffer was monitored for 10 minutes. Kinetic association rate constant (kₐ) and dissociation rate constant (kd) were determined by fitting the real-time sensorgrams to a 1:1 binding model using Scrubber 2.0c curve fitting software. Binding dissociation equilibrium constants (KD) and dissociative half-lives (t_{1/2}) were calculated from the kinetic rate constants as: […]

[2] = molecular target: T1, full-length human IL-36R on cells; assay: cell-based or functional assay
[3] = molecular target: T3, recombinant human IL-36R extracellular …; assay: SPR (Biacore 4000), mAb captured on anti-human Fc, 25°C
Protocol: as §1
Target sequence in this assay (Q9HB29 other isoform, or with tags, fused parts or gaps limits assumed): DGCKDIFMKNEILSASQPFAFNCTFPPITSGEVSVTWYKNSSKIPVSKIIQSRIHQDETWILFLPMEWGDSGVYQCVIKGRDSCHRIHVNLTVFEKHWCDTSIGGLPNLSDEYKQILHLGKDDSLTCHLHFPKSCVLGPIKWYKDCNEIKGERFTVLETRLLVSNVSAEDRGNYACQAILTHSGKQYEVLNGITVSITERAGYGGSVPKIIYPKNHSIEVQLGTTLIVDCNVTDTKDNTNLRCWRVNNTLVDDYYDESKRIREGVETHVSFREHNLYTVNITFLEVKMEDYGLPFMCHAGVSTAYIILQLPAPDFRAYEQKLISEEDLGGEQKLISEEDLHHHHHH

[4] = molecular target: T2, Macaca fascicularis IL-36R on cells; assay: cell-based or functional assay

Binder | 100 nM hIL-36R-MMH Bound (RU) [1] | Kd [1] | koff [1] | kon [1] | t½ [1] | IC50 [M], NFκB-luciferase, 10 pM hIL-36γ [2] | IC50 [M], NFκB-luciferase, 15 pM hIL-36β [2] | IC50 [M], NFκB-luciferase, 20 pM hIL-36α [2] | Max Inhibition (%), NFκB-luciferase, 10 pM hIL-36γ [2] | Max Inhibition (%), NFκB-luciferase, 15 pM hIL-36β [2] | Max Inhibition (%), NFκB-luciferase, 20 pM hIL-36α [2] | 100 nM hIL-36R-MMH Bound (RU) [3] | Kd [3] | koff [3] | kon [3] | t½ [3] | IC50 [M], NFκB-luciferase, 300 pM hIL-36γ [4] | IC50 [M], NFκB-luciferase, 500 pM hIL-36α [4] | IC50 [M], NFκB-luciferase, 600 pM hIL-36β [4] | Max Inhibition (%), NFκB-luciferase, 300 pM hIL-36γ [4] | other results
H4H14728P (antibody, human IgG4 S228P, kappa, V domains shown) VH: QVQLQESGPGLVKPSQTLSLTCTVSGGSISSADYYWSWIRQHPGKGLEWIGSIYYTGSTYYNPSLKSRLTISIDTSENQFSLKLTSLTAADTAVYYCASEEANWGSHFDSWGQGTLVTVSS VL: DIQMTQSPSSLSASVGDRVTITCRASQSIDNFLNWYQQKPGKAPKLLIYAASSLQSGVPSRFSGSGSGTDFTLTISSLQPEDFASYYCQHSHSAHPITFGQGTRLEIKR | 93 RU | 21.5 nM | 0.00293 s⁻¹ | 136000 M⁻¹ s⁻¹ | 4 min | 1.2e-09 M | 1.3e-09 M | 9.7e-10 M | 99% | 99% | 97% | 69 RU | 7.87 nM | 0.000773 s⁻¹ | 98300 M⁻¹ s⁻¹ | 15 min | 2e-09 M | 1.3e-09 M | 1.5e-09 M | 93% | Max Inhibition (%), NFκB-luciferase, 500 pM hIL-36α [4]: 93%; Max Inhibition (%), NFκB-luciferase, 600 pM hIL-36β [4]: 95%
H4H14731P (antibody, human IgG4 S228P, kappa, V domains shown) VH: QLQLQESGPGLVKPSETLSLTCTVSGGSISSSNYYWGWIRQPPGKRLEWIGSIYYSGSTYYNPSLKTRVTISVDTSKNQFSLKLTSVTAADTAVYYCAREEAAALTHFDFWGQGTLVTVSS VL: DIQMTQSPSSLSASVGDRVTITCRASQSISNYLNWYQQKPGKAPKLLIFAASSLQSGVPSRFSGSGSGTDFTLTISSLQPEDFATYYCQHSHSSHPITFGQGTRLEIKR | 81 RU | 7.11 nM | 0.000971 s⁻¹ | 137000 M⁻¹ s⁻¹ | 12 min | 7.3e-10 M | 9.4e-10 M | 7.8e-10 M | 99% | 99% | 99% | 54 RU | 3.72 nM | 0.000343 s⁻¹ | 92200 M⁻¹ s⁻¹ | 34 min | 5.4e-09 M | 3.1e-09 M | 7.1e-09 M | 75% | Max Inhibition (%), NFκB-luciferase, 500 pM hIL-36α [4]: 84%; Max Inhibition (%), NFκB-luciferase, 600 pM hIL-36β [4]: 78%
H4H14699P2 (antibody, human IgG4 S228P, kappa, V domains shown, Fully human anti-IL-36R antibody) VH: EVQLVESGGGLVQPGRSLRLSCAASGFTFDDYAIHWVRQAPGKGLEWVSVISWNSDIIGYADSVKGRFTVSRDNAKNSLYLQMNSLRTEDTALYYCAKGYNWNFFDYWGQGTLVTVSS VL: EIVLTQSPATLSLSPGERATLSCRASQSVSSYLAWYQQKPGQAPRLLIYNAANRATDIPARFSGSGSGTDFTLTISSLEPEDFAVYYCQQRSNWPLTFGGGTKVEIKR | 89 RU | 29.5 nM | 0.00418 s⁻¹ | 142000 M⁻¹ s⁻¹ | 2.8 min | 1.4e-10 M | 1.3e-10 M | 1.3e-10 M | 99% | 100% | 100% | 74 RU | 10.2 nM | 0.00168 s⁻¹ | 165000 M⁻¹ s⁻¹ | 7 min | 2e-10 M | 8.4e-11 M | 1.9e-10 M | 97% | Max Inhibition (%), NFκB-luciferase, 500 pM hIL-36α [4]: 97%; Max Inhibition (%), NFκB-luciferase, 600 pM hIL-36β [4]: 98%
H4H14700P2 (antibody, human IgG4 S228P, kappa, V domains shown) VH: EVQLVESGGGLVQPGRSLRLSCAASGFTFDDYAMHWVRQTPGKGLEWVSVISWNSDVIAYSDSVKGRFTISRDNAKNSLYLQMNSLGTEDTALYYCAKGHNWNFFDYWGQGTLVTVSS VL: EIVLTQSPATLSLSPGERATLSCRASQSVSSYLAWYQQKPGQAPRLLIYNVANRATDIPARFSGSGSGTDFTLTISGLEPEDFAVYFCQQRSNWPLTFGGGTKVEIKR | 89 RU | 10.5 nM | 0.00184 s⁻¹ | 176000 M⁻¹ s⁻¹ | 6 min | 1.2e-10 M | 2e-10 M | 1.9e-10 M | 100% | 100% | 101% | 67 RU | 4.82 nM | 0.000579 s⁻¹ | 120000 M⁻¹ s⁻¹ | 20 min | 1.8e-10 M | 1.2e-10 M | 1.8e-10 M | 99% | Max Inhibition (%), NFκB-luciferase, 500 pM hIL-36α [4]: 99%; Max Inhibition (%), NFκB-luciferase, 600 pM hIL-36β [4]: 99%
